Results: publication PMC12800186, “Intelectin-2 is a broad-spectrum antimicrobial lectin” (Nature Communications, 2026)
Values joined by “and” are separate entries in the source; they are usually repeats but may differ in a detail not shown here. Equal values may be shown once.

Legend:
[1] = target: the molecule itself; assay: cross-linking; 1 mg/mL mItln2 in HEPES/EDTA buffer with BS3 (0.1-5 mM), RT, 30 min; SDS-PAGE with DTT
[2] = target: the molecule itself; assay: not stated; recombinant StrepII-hItln2; covalent trimers and higher-order oligomers (Supplementary Fig. 8E, F)

| Protein | stoichiometry N [1] | stoichiometry N [2] |
| --- | --- | --- |
| StrepII-tagged mouse intelectin-2 (natural protein, UniProt Q80ZA0 20-313, looked up, glycosylated (N-glycosylation examined with PNGase F), Mouse intelectin-2 (mItln2), GenBank AAO60215, UniProt Q80ZA0; amplified from the start to the stop codon and secreted from HEK293 cells; mass and extinction coefficient were calculated without the signal peptide; Non-covalent oligomers of variable size; also called mItln2; strep-mItln2; source: suspension-adapted HEK293 cells, transient transfection, purified from the expression medium …) AEENLDTNRWGNSFFSSLPRSCKEIKQEDTKAQDGLYFLRTENGVIYQTFCDMTTAGGGWTLVASVHENNLRGRCTVGDRWSSQQGNRADYPEGDGNWANYNTFGSAEGATSDDYKNPGYFDIQAENLGIWHVPNNSPLHTWRNSSLLRYRTFTGFLQRLGHNLFGLYQKYPVKYGEGKCWTDNGPAFPVVYDFGDAQKTASYYSPSGRNEFTAGYVQFRVFNNERAASALCAGVRVTGCNTEHHCIGGGGFFPEFDPEECGDFAAFDANGYGTHIRYSNSREITEAAVLLFYR | 2 and 3 and 6 |  |
| StrepII-tagged human intelectin-2 (A177S, C311G) (natural protein, UniProt Q8WWU7 27-325, looked up, Human intelectin-2 (hItln2, ITLN2), cDNA AY358905; secreted from HEK293 cells; mass and extinction coefficient were calculated without the signal peptide; A177S introduces a glycosylation site, C311G removes an unpaired cysteine; For low pH and low salt experiments the protein was exchanged into PIPES buffer, pH 5.5; also called hItln2; StrepII-hItln2; source: suspension-adapted HEK293 cells, …) AAASSLEMLSREFETCAFSFSSLPRSCKEIKERCHSAGDGLYFLRTKNGVVYQTFCDMTSGGGGWTLVASVHENDMRGKCTVGDRWSSQQGNKADYPEGDGNWANYNTFGSAEAATSDDYKNPGYYDIQAKDLGIWHVPNKSPMQHWRNSSLLRYRTNTGFLQRLGHNLFGIYQKYPVKYRSGKCWNDNGPAIPVVYDFGDAKKTASYYSPYGQREFVAGFVQFRVFNNERAANALCAGIKVTGCNTEHHCIGGGGFFPQGKPRQCGDFSAFDWDGYGTHVKSSGSREITEAAVLLFYR |  | ≥ 3 |
